Test results reported in patent US20140087995A1 (published 2014).
Numbered stars: 1 amine (or outer) side, 2 acyl side, 3 side chain; on linkers, the order of the positions; unused ones are H or OH. Bridge positions count the residues as written; N and C are the ends. Side chains are listed from the residue outwards. Ends that are not written are not given here. * marks the point of attachment. C20 diacid = O=C(O)CCCCCCCCCCCCCCCCCCC(=O)*; γGlu = O=C(O)[C@H](CCC(=O)[*:2])N[*:1]

T1: human calcitonin receptor (human, UniProt P30988 25-474)
T1 construct: whole, on cells; Assayed as cell membranes of BHK tk'ts 13 cells stably transfected with the human calcitonin receptor (Assay VII); also called hCTR; hCT
T1 sequence (looked up): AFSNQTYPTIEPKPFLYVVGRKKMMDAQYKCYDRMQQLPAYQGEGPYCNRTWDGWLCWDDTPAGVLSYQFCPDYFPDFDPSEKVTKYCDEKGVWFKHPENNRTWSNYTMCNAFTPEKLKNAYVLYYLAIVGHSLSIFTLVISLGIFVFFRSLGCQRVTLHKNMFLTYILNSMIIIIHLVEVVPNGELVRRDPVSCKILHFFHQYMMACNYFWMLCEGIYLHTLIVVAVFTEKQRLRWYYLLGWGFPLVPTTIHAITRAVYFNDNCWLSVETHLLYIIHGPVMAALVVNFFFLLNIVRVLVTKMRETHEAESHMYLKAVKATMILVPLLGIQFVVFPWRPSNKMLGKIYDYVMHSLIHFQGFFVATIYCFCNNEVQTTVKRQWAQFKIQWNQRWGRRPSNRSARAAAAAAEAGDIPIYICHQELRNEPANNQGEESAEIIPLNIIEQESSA


How the values were obtained:
[1] = target: T1, human calcitonin receptor; test: SPA competition vs 125I-calcitonin, membranes of BHK cells with human calcitonin receptor (Assay VII)
How it was run: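 BHK hCTR membranes 35 ng/μL + SPA beads 0.05 mg/well; buffer 50 mM Hepes pH 7.4, 1 mM CaCl2, 5 mM MgCl₂, 0.1% OA, 0.02% Tween20. 120 min, 25° C., shaking. Scintillation count; IC50 by one-site binding competition.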

[2] = target: T1, human calcitonin receptor; test: IC50 at hCTR divided by IC50 at hAmylin-R (SPA competition assays V and VII)
How it was run: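 Competition binding by SPA with cell membranes (35 ng/μL) and SPA beads in 50 mM Hepes pH 7.4 with 1 mM CaCl2, 5 mM MgCl2, 0.1% OA and 0.02% Tween20. Incubated 120 min at 25 °C with shaking, then counted.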

IC50 [1]	Ratio hCT/hAmylin binding [2]	Binder
130 nM	157	K([γGlu-C20 diacid])CNTATCATQRLARFLRHSSPNFGAIPSSTPVGSNTY-NH2 (disulfide 2-7; N-terminus assumed; SMILES CC[C@H](C)[C@H](NC(=O)[C@H](C)NC(=O)CNC(=O)[C@H](Cc1ccccc1)NC(=O)[C@H](CC(N)=O)NC(=O)[C@@H]1CCCN1C(=O)[C@H](CO)NC(=O)[C@H](CO)NC(=O)[C@H](Cc1c[nH]cn1)NC(=O)[C@H](CCCNC(=N)N)NC(=O)[C@H](CC(C)C)NC(=O)[C@H](Cc1ccccc1)NC(=O)[C@H](CCCNC(=N)N)NC(=O)[C@H](C)NC(=O)[C@H](CC(C)C)NC(=O)[C@H](CCCNC(=N)N)NC(=O)[C@H](CCC(N)=O)NC(=O)[C@@H](NC(=O)[C@H](C)NC(=O)[C@@H]1CSSC[C@H](NC(=O)[C@@H](N)CCCCNC(=O)CC[C@H](NC(=O)CCCCCCCCCCCCCCCCCCC(=O)O)C(=O)O)C(=O)N[C@@H](CC(N)=O)C(=O)N[C@@H]([C@@H](C)O)C(=O)N[C@@H](C)C(=O)N[C@@H]([C@@H](C)O)C(=O)N1)[C@@H](C)O)C(=O)N1CCC[C@H]1C(=O)N[C@@H](CO)C(=O)N[C@@H](CO)C(=O)N[C@H](C(=O)N1CCC[C@H]1C(=O)N[C@H](C(=O)NCC(=O)N[C@@H](CO)C(=O)N[C@@H](CC(N)=O)C(=O)N[C@H](C(=O)N[C@@H](Cc1ccc(O)cc1)C(N)=O)[C@@H](C)O)C(C)C)[C@@H](C)O, also called compound 63)
36.4 nM	46.1	K([γGlu-C20 diacid])CNTATCATQRLANFLRHSSPNFGAIPSSTNVGRNTY-NH2 (disulfide 2-7; N-terminus assumed; SMILES CC[C@H](C)[C@H](NC(=O)[C@H](C)NC(=O)CNC(=O)[C@H](Cc1ccccc1)NC(=O)[C@H](CC(N)=O)NC(=O)[C@@H]1CCCN1C(=O)[C@H](CO)NC(=O)[C@H](CO)NC(=O)[C@H](Cc1c[nH]cn1)NC(=O)[C@H](CCCNC(=N)N)NC(=O)[C@H](CC(C)C)NC(=O)[C@H](Cc1ccccc1)NC(=O)[C@H](CC(N)=O)NC(=O)[C@H](C)NC(=O)[C@H](CC(C)C)NC(=O)[C@H](CCCNC(=N)N)NC(=O)[C@H](CCC(N)=O)NC(=O)[C@@H](NC(=O)[C@H](C)NC(=O)[C@@H]1CSSC[C@H](NC(=O)[C@@H](N)CCCCNC(=O)CC[C@H](NC(=O)CCCCCCCCCCCCCCCCCCC(=O)O)C(=O)O)C(=O)N[C@@H](CC(N)=O)C(=O)N[C@@H]([C@@H](C)O)C(=O)N[C@@H](C)C(=O)N[C@@H]([C@@H](C)O)C(=O)N1)[C@@H](C)O)C(=O)N1CCC[C@H]1C(=O)N[C@@H](CO)C(=O)N[C@@H](CO)C(=O)N[C@H](C(=O)N[C@@H](CC(N)=O)C(=O)N[C@H](C(=O)NCC(=O)N[C@@H](CCCNC(=N)N)C(=O)N[C@@H](CC(N)=O)C(=O)N[C@H](C(=O)N[C@@H](Cc1ccc(O)cc1)C(N)=O)[C@@H](C)O)C(C)C)[C@@H](C)O, also called compound 79) [N^ε1-[(4S)-4-carboxy-4-(19-carboxynonadecanoylamino)butanoyl]-[Arg17,Pro21,Pro27,Arg34]-h-amylin]
50.7 nM	118	K([γGlu-C20 diacid])CNTATCATQRLANFLRHSSPNFGAIPSSTNVGHNTY-NH2 (disulfide 2-7; N-terminus assumed; SMILES CC[C@H](C)[C@H](NC(=O)[C@H](C)NC(=O)CNC(=O)[C@H](Cc1ccccc1)NC(=O)[C@H](CC(N)=O)NC(=O)[C@@H]1CCCN1C(=O)[C@H](CO)NC(=O)[C@H](CO)NC(=O)[C@H](Cc1c[nH]cn1)NC(=O)[C@H](CCCNC(=N)N)NC(=O)[C@H](CC(C)C)NC(=O)[C@H](Cc1ccccc1)NC(=O)[C@H](CC(N)=O)NC(=O)[C@H](C)NC(=O)[C@H](CC(C)C)NC(=O)[C@H](CCCNC(=N)N)NC(=O)[C@H](CCC(N)=O)NC(=O)[C@@H](NC(=O)[C@H](C)NC(=O)[C@@H]1CSSC[C@H](NC(=O)[C@@H](N)CCCCNC(=O)CC[C@H](NC(=O)CCCCCCCCCCCCCCCCCCC(=O)O)C(=O)O)C(=O)N[C@@H](CC(N)=O)C(=O)N[C@@H]([C@@H](C)O)C(=O)N[C@@H](C)C(=O)N[C@@H]([C@@H](C)O)C(=O)N1)[C@@H](C)O)C(=O)N1CCC[C@H]1C(=O)N[C@@H](CO)C(=O)N[C@@H](CO)C(=O)N[C@H](C(=O)N[C@@H](CC(N)=O)C(=O)N[C@H](C(=O)NCC(=O)N[C@@H](Cc1c[nH]cn1)C(=O)N[C@@H](CC(N)=O)C(=O)N[C@H](C(=O)N[C@@H](Cc1ccc(O)cc1)C(N)=O)[C@@H](C)O)C(C)C)[C@@H](C)O, also called compound 77) [N^ε1-[(4S)-4-carboxy-4-(19-carboxynonadecanoylamino)butanoyl]-[Arg17,Pro21,Pro27,His34]-h-amylin]
53.5 nM	82.4	K([γGlu-C20 diacid])CNTATCATQRLARFLRHSSPNFGAIPSSTNVGPNTY-NH2 (disulfide 2-7; N-terminus assumed; SMILES CC[C@H](C)[C@H](NC(=O)[C@H](C)NC(=O)CNC(=O)[C@H](Cc1ccccc1)NC(=O)[C@H](CC(N)=O)NC(=O)[C@@H]1CCCN1C(=O)[C@H](CO)NC(=O)[C@H](CO)NC(=O)[C@H](Cc1c[nH]cn1)NC(=O)[C@H](CCCNC(=N)N)NC(=O)[C@H](CC(C)C)NC(=O)[C@H](Cc1ccccc1)NC(=O)[C@H](CCCNC(=N)N)NC(=O)[C@H](C)NC(=O)[C@H](CC(C)C)NC(=O)[C@H](CCCNC(=N)N)NC(=O)[C@H](CCC(N)=O)NC(=O)[C@@H](NC(=O)[C@H](C)NC(=O)[C@@H]1CSSC[C@H](NC(=O)[C@@H](N)CCCCNC(=O)CC[C@H](NC(=O)CCCCCCCCCCCCCCCCCCC(=O)O)C(=O)O)C(=O)N[C@@H](CC(N)=O)C(=O)N[C@@H]([C@@H](C)O)C(=O)N[C@@H](C)C(=O)N[C@@H]([C@@H](C)O)C(=O)N1)[C@@H](C)O)C(=O)N1CCC[C@H]1C(=O)N[C@@H](CO)C(=O)N[C@@H](CO)C(=O)N[C@H](C(=O)N[C@@H](CC(N)=O)C(=O)N[C@H](C(=O)NCC(=O)N1CCC[C@H]1C(=O)N[C@@H](CC(N)=O)C(=O)N[C@H](C(=O)N[C@@H](Cc1ccc(O)cc1)C(N)=O)[C@@H](C)O)C(C)C)[C@@H](C)O, also called compound 65)
137 nM	146	K([γGlu-C20 diacid])CNTATCATQRLARFLRHSSPNFGAIPSSTNVGSNTY-NH2 (disulfide 2-7; N-terminus assumed; SMILES CC[C@H](C)[C@H](NC(=O)[C@H](C)NC(=O)CNC(=O)[C@H](Cc1ccccc1)NC(=O)[C@H](CC(N)=O)NC(=O)[C@@H]1CCCN1C(=O)[C@H](CO)NC(=O)[C@H](CO)NC(=O)[C@H](Cc1c[nH]cn1)NC(=O)[C@H](CCCNC(=N)N)NC(=O)[C@H](CC(C)C)NC(=O)[C@H](Cc1ccccc1)NC(=O)[C@H](CCCNC(=N)N)NC(=O)[C@H](C)NC(=O)[C@H](CC(C)C)NC(=O)[C@H](CCCNC(=N)N)NC(=O)[C@H](CCC(N)=O)NC(=O)[C@@H](NC(=O)[C@H](C)NC(=O)[C@@H]1CSSC[C@H](NC(=O)[C@@H](N)CCCCNC(=O)CC[C@H](NC(=O)CCCCCCCCCCCCCCCCCCC(=O)O)C(=O)O)C(=O)N[C@@H](CC(N)=O)C(=O)N[C@@H]([C@@H](C)O)C(=O)N[C@@H](C)C(=O)N[C@@H]([C@@H](C)O)C(=O)N1)[C@@H](C)O)C(=O)N1CCC[C@H]1C(=O)N[C@@H](CO)C(=O)N[C@@H](CO)C(=O)N[C@H](C(=O)N[C@@H](CC(N)=O)C(=O)N[C@H](C(=O)NCC(=O)N[C@@H](CO)C(=O)N[C@@H](CC(N)=O)C(=O)N[C@H](C(=O)N[C@@H](Cc1ccc(O)cc1)C(N)=O)[C@@H](C)O)C(C)C)[C@@H](C)O, also called compound 83) [N^ε1-[(4S)-4-carboxy-4-(19-carboxynonadecanoylamino)butanoyl]-[Arg14,Arg17,Pro21,Pro27]-h-amylin]
